KD fold change (against WT:WT) data for one substance are collected here from US20240254182A1.

This experiment concerns the target design 9 G-CSFR(Ig-CRH)E, tag cleaved (human) (UniProt Q99062). The experiment is described as follows: SPR, WT G-CSF against design 9 G-CSFR(Ig-CRH)E; steady state derived affinity constant. On the technique in general: Surface plasmon resonance follows binding to a sensor surface in real time, without labels.

In turn, “WT G-CSF, purified from insect cells, tag cleaved (from UniProt P09919 31-206) (ligand)” displayed a KD fold change (against WT:WT) of 8810 fold.
